From ChEMBL document CHEMBL1145329, “Novel methylenephosphophosphonate analogues of mycophenolic adenine dinucleotide. Inhibition of inosine monophosphate dehydrogenase” (J Med Chem, 2006)

Tested on: NC(=O)c1ccc[n+]([C@@H]2O[C@H](COP(=O)([O-])OP(=O)(O)OC[C@H]3O[C@@H](n4cnc5c(N)ncnc54)[C@H](O)[C@@H]3O)[C@@H](O)[C@H]2O)c1
Test: Inhibition of human IMPDH
Format: protein assay

With “Inosine-5'-monophosphate dehydrogenase (IMPDH) (Homo sapiens) (from UniProt P20839+P12268)” as the substance, how does the Km read?
The Km was 100 µM.
